Laboratory results taken from US20240117066A1 (Memorial Sloan Kettering, published 2024).

B1: 17C9 antibody (antibody, V domains shown)
VH: EVQLVESGGGLVKPGGSLKLSCAASGFTFSSYAMSWVRQSPEKRLEWVAEISSGGTYTYYPDTVTGRFTISRDNAKNTLYLEMSSLRSEDTAMYYCARDDGFYAWFGYWGQGTLVTVSA
VL: not shown
B2: 8B1 antibody (antibody, V domains shown)
VH: QIQLVQSGPELKKPGETVKISCKASGYTFTNYGMNWVKQAPGKGLKWMGWINTNTGEPTYAEEFKGRFAFSLETSASTAYLQINNLKNEDTATYFCGDYEFAYWGQGTLVTVSA
VL: DIQMTQSPASLSVSVGETVTITCRASENIYSNLAWYQQKQGKSPQLLVYAATNLADGVPSRFSGSGSGTQYSLKINSLQSEDFGSYYCQHFWGTPWTFGGGTKLEIK
B3: 6C8 antibody (antibody, V domains shown)
VH: EVQLVESGGGLVQPGGSLKISCAASGFTFTNYGMSWVRQTPDKRLELVATTNSNGGATYYPDSVKGRFTISRDNAKNTLYLQMSSLKSEDTAMYFCTRDRDYYGGSMDYWGQGTSVTVSS
VL: DIVMSQSPSSLAVSVGERVSMSCKSSQSLLYSSDQKNYLAWYQQKPGQSPELLIYWASTRESGVPDRFTGSGSGTDFTLTISSVKAEDLAIYYCQQYYSYPFTFGSGTKLEIK
B4: 11E10 antibody (antibody, V domains shown)
VH: QVQLQQSGPELVKPGASVKMSCKTSGYTFTDYVITWVKQRTGQGLEWIGEIYPRSGNTYYNAKFRGKATLTADKSSNTAYMQLSSLTSEDSAVYFCARGGYYDFDFFAMDYWGQGTSVTVSS
VL: DIVMTQAAPSVPVTPGESVSISCRSSKSLLHSNGNTYLYWFLQRPGQSPQLLIYRMSNLASGVPDRFSGSGSGTAFTLRISRVEAEDVGVYYCMQHLEYPYTFGGGTKLEIK
B5: 14C5 antibody (antibody, V domains shown)
VH: QVQLKESGPGLVAPSQSLSITCTVSGFSLTSYGVHWVRQPPGKGLEWLGVLWAGGSTDYNSALMSRLSISKDNSKSQVFLKMNSLQTDDTAMYYCARGGLRQVFAYWGQGTLVTVSA
VL: DVLMTQTPLSLPVSLGDQASISCRSSQSIVYSNGNTYLEWYLQKPGQSPKLLIYKVSNRFSGVPDRFSGSGSGTDFTLKISRVEAEDLGVYYCFQGSHVPYTFGGGTKLEMK

Each binder was assayed against T1, recombinant human uPAR protein (Leu23-Arg303) with a C-terminal 6-his tag (human, UniProt Q03405 23-303) (assay: Biacore (SPR), single cycle kinetics).
T1 construct: also called CD87
Description: Six clones 8B1, 11E10, 17C9, 19D7, 6C8, and 14C5 were produced. Next, the binding affinities KD of 8B1, 11E10, 17C9, 19D7, 6C8, and 14C5 antibodies were assessed. The KD values were calculated using the Biacore single cycle kinetics analysis.

T1 sequence (Q03405 other isoform, or with tags, fused parts or gaps): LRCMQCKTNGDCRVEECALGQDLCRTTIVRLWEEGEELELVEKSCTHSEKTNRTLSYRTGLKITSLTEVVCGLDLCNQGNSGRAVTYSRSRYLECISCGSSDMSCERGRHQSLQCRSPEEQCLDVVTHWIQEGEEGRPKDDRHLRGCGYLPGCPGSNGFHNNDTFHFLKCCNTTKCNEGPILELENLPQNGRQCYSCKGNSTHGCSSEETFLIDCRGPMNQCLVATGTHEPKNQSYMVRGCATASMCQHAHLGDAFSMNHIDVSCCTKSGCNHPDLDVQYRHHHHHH

Kd	Binder
18.6 nM	B1
3.48 nM	B2
6.61 nM	B3
95.2 nM	B4
42.4 nM	B5
